Numbering of substitutions follows the chain as printed. Names may count otherwise.
B1: PRO2230 (scFv 37-20-B03-sc09.1) (scFv)
scFv: DIQMTQSPASLSASVGDRVTITCQASQSIGTYLAWYQQKPGKPPKLLIYRAFILASGVPSRFSGSGSGTDFTLTISSLQPEDFATYYCQSNFYSDSTTIGPNAFGTGTKVTVLGGGGGSGGGGSGGGGSGGGGSEVQLVESGGGLVQPGGSLRLSCAASGFSFNSDYWIYWVRQAPGKGLEWIASIYGGSSGNTQYASWAQGRFTISRDNSKNTVYLQMNSLRAEDTAVYFCARGYVDYGGATDLWGQGTLVTVSS
notes: also called PRO2230 wt; a-PD-L1 wt
B2: PRO2903 (scFv 37-20-B03-sc09.1_(L12R, V103T, L144Q)) (scFv)
scFv: B1 scFv with L145R, V229T, L251Q
notes: VH substitutions, AHo numbering; also called PRO2230-L12R-V103T-L144Q
B3: PRO2949 (scFv 37-20-B03-sc09.1_(T146E)) (scFv)
scFv: B1 scFv with T253E
notes: PRO2230 variant; VH substitution, AHo numbering; also called PRO2230 T146E
B4: PRO2947 (scFv 37-20-B03-sc09.1_(T146K)) (scFv)
scFv: B1 scFv with T253K
notes: PRO2230 variant; VH substitution, AHo numbering; also called PRO2230 T146K
B5: PRO2915 (scFv 37-20-B03-sc09.1_(L12A, T101S, L144A, T146Q)) (scFv)
scFv: B1 scFv with L145A, T227S, L251A, T253Q
notes: PRO2230 variant; VH substitutions, AHo numbering; also called PRO2230 L12A-T101S-L144A-T146Q
B6: PRO2986 (scFv 37-20-B03-sc09.1_(T146A)) (scFv)
scFv: B1 scFv with T253A
notes: PRO2230 variant; VH substitution, AHo numbering; also called PRO2230 T146A
B7: PRO3306 (scFv 37-20-B03-sc09.1_(L12A, T101R, L144A, T146Q)) (scFv)
scFv: B1 scFv with L145A, T227R, L251A, T253Q
notes: PRO2230 variant; VH substitutions, AHo numbering; also called PRO2230 L12A-T101R-L144A-T146Q
B8: PRO2914 (scFv 37-20-B03-sc09.1_(T101S, L144A, T146Q)) (scFv)
scFv: B1 scFv with T227S, L251A, T253Q
notes: PRO2230 variant; VH substitutions, AHo numbering; also called PRO2230 T101S-L144A-T146Q
B9: PRO2985 (scFv 37-20-B03-sc09.1_(T101A)) (scFv)
scFv: B1 scFv with T227A
notes: PRO2230 variant; VH substitution, AHo numbering; also called PRO2230 T101A
B10: PRO2935 (scFv 37-20-B03-sc09.1_(L144A, S148N)) (scFv)
scFv: B1 scFv with L251A, S255N
notes: PRO2230 variant; VH substitutions, AHo numbering; also called PRO2230 L144A-S148N
B11: PRO3308 (scFv 37-20-B03-sc09.1_(L12A, T101S, L144K, T146Q)) (scFv)
scFv: B1 scFv with L145A, T227S, L251K, T253Q
notes: PRO2230 variant; VH substitutions, AHo numbering; also called PRO2230 L12A-T101S-L144K-T146Q
B12: PRO2950 (scFv 37-20-B03-sc09.1_(T146Q)) (scFv)
scFv: B1 scFv with T253Q
notes: PRO2230 variant; VH substitution, AHo numbering; also called PRO2230 T146Q
B13: PRO2934 (scFv 37-20-B03-sc09.1_(L144K, S148L)) (scFv)
scFv: B1 scFv with L251K, S255L
notes: PRO2230 variant; VH substitutions, AHo numbering; also called PRO2230 L144K-S148L
B14: PRO3310 (scFv 37-20-B03-sc09.1_(L12R, T101R, L144A, T146Q)) (scFv)
scFv: B1 scFv with L145R, T227R, L251A, T253Q
notes: PRO2230 variant; VH substitutions, AHo numbering; also called PRO2230 L12R-T101R-L144A-T146Q
B15: PRO2951 (scFv 37-20-B03-sc09.1_(T101R)) (scFv)
scFv: B1 scFv with T227R
notes: PRO2230 variant; VH substitution, AHo numbering; also called PRO2230 T101R
B16: PRO2988 (scFv 37-20-B03-sc09.1_(P48A)) (scFv)
scFv: B1 scFv with P176A
notes: PRO2230 variant; VH substitution, AHo numbering; also called PRO2230 P48A
B17: PRO2948 (scFv 37-20-B03-sc09.1_(T146R)) (scFv)
scFv: B1 scFv with T253R
notes: PRO2230 variant; VH substitution, AHo numbering; also called PRO2230 T146R
B18: PRO2913 (scFv 37-20-B03-sc09.1_(T101S, T146Q)) (scFv)
scFv: B1 scFv with T227S, T253Q
notes: PRO2230 variant; VH substitutions, AHo numbering; also called PRO2230 T101S-T146Q
B19: PRO2987 (scFv 37-20-B03-sc09.1_(P15A)) (scFv)
scFv: B1 scFv with P148A
notes: PRO2230 variant; VH substitution, AHo numbering; also called PRO2230 P15A
B20: PRO2933 (scFv 37-20-B03-sc09.1_(L144K, T146E, S148K)) (scFv)
scFv: B1 scFv with L251K, T253E, S255K
notes: PRO2230 variant; VH substitutions, AHo numbering; also called PRO2230 L144K-T146E-S148K
B21: PRO3307 (scFv 37-20-B03-sc09.1_(L12A, T101S, L144A, T146R)) (scFv)
scFv: B1 scFv with L145A, T227S, L251A, T253R
notes: PRO2230 variant; VH substitutions, AHo numbering; also called PRO2230 L12A-T101S-L144A-T146R
B22: PRO2984 (scFv 37-20-B03-sc09.1_(L12S, V103T, L144T)) (scFv)
scFv: B1 scFv with L145S, V229T, L251T
notes: VH substitutions, AHo numbering; also called PRO2230-L12S-V103T-L144T
B23: PRO3309 (scFv 37-20-B03-sc09.1_(L12R, T101S, L144A, T146Q)) (scFv)
scFv: B1 scFv with L145R, T227S, L251A, T253Q
notes: PRO2230 variant; VH substitutions, AHo numbering; also called PRO2230 L12R-T101S-L144A-T146Q
B24: PRO2952 (scFv 37-20-B03-sc09.1_(T101S)) (scFv)
scFv: B1 scFv with T227S
notes: PRO2230 variant; VH substitution, AHo numbering; also called PRO2230 T101S

The binders below were run against T1, human a-PD-L1 Fc (Sino Biological, 10084-H02H, LC11NO2402) (human, UniProt Q9NZQ7 19-239) (assay: SPR, PD-L1 Fc immobilised, scFv analyte, 1:1 fit).
T1 construct: Bought Fc fusion immobilised on the SPR chip; Printed as 'a-PD-L1 Fc' but used as the antigen (ligand) for the anti-PD-L1 scFvs; also called Human PD-L1; not shown: Fc part
Procedure: The mutation variants were then injected at concentrations of 10 nM, 2 nM and 0.4 nM over the ligand-immobilized and reference spots. The wild type variants were used as a control, while an empty spot was used as reference.
After each cycle with analyte, the surface was regenerated with a 3M MgCl₂ solution, thereby allowing the next analyte cycle to have only free ligand available. Binding affinity KD was globally calculated by the Bruker SPR software based on the binding association (kₒₙ) and dissociation (Koff) rate, by fitting a 1:1 Langmuir model to the curves obtained by the cycles with the three different concentrations of the analyte.

T1 sequence (Q9NZQ7 19-239 limits assumed): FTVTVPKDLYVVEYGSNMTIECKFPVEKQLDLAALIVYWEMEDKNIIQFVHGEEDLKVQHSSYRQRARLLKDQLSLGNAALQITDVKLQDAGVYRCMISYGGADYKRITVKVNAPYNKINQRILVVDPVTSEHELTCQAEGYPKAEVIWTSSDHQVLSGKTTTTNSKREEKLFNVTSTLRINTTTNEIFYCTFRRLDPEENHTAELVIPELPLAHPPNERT

Kd [nM]	n-fold to wt [fold]	Binder
0.049	1	B1
0.053	1.1	B2
0.056	1.1	B3
0.041	0.8	B4
0.05	1	B5
0.069	1.4	B6
0.018	0.4	B7
0.025	0.5	B8
0.047	1	B9
0.091	1.9	B10
0.036	0.7	B11
0.064	1.3	B12
0.018	0.4	B13
0.038	0.8	B14
0.042	0.9	B15
0.034	0.7	B16
0.064	1.3	B17
0.058	1.2	B18
0.048	1	B19
0.045	0.9	B20
0.027	0.6	B21
0.036	0.7	B22
0.026	0.5	B23
0.036	0.7	B24

These binders were tested against pre-existing anti-drug antibodies (ADA) present in human sera (assay: pre-existing ADA ELISA, scFv coated, human sera unspiked vs spiked).

Mean No of serum samples >30% inhibition (30% CCP) with SCP (serum samples)	No of serum samples >30% inhibition (30% CCP) without SCP (serum samples)	Binder
9	18	B1
5	5	B2
1	2	B3
1	2	B4
2	1	B5
8	2	B6
0	7	B7
5	5	B8
2	2	B9
8	8	B10
2	7	B11
4	4	B12
2	2	B13
3	6	B14
1	0	B15
3	7	B16
1	0	B17
3	2	B18
2	7	B19
1	0	B20
4	7	B21
5	5	B22
1	4	B23
5	8	B24

— patent US20250382363A1 (NUMAB THERAPEUTICS, published 2025)
